These results are taken from publication doi:10.1101/2023.11.02.565342.

The target in data set [1] is HSP70 (Spodoptera frugiperda (endogenous in Sf9)). Description: native MS.
The next data set concerns the target T1, TOPOVIBLΔC25 K281E K282E (Mus musculus, UniProt J3QMY9 1-554, K281E;K282E).
T1 sequence: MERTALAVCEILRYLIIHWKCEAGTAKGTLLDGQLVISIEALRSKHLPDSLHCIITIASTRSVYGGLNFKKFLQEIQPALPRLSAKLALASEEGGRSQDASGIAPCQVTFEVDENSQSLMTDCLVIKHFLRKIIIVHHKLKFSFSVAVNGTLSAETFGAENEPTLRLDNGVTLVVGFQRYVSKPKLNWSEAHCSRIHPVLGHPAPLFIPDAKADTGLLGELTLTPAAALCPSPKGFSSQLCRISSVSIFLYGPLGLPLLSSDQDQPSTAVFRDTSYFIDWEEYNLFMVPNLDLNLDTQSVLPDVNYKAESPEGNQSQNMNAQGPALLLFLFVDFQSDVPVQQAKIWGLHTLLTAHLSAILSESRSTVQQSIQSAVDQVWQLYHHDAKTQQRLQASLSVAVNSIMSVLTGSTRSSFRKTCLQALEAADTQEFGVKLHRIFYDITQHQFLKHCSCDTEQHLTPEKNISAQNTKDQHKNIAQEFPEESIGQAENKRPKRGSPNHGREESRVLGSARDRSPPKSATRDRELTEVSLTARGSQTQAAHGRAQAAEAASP
Description: fluorescence anisotropy. On the technique in general: In fluorescence polarisation assays a small probe gives low polarisation when free and higher when bound to something large.

The target of data set [2] is T2, TOPOVIBLΔC25 (monomer) (Mus musculus, UniProt J3QMY9 1-554).
T2 sequence: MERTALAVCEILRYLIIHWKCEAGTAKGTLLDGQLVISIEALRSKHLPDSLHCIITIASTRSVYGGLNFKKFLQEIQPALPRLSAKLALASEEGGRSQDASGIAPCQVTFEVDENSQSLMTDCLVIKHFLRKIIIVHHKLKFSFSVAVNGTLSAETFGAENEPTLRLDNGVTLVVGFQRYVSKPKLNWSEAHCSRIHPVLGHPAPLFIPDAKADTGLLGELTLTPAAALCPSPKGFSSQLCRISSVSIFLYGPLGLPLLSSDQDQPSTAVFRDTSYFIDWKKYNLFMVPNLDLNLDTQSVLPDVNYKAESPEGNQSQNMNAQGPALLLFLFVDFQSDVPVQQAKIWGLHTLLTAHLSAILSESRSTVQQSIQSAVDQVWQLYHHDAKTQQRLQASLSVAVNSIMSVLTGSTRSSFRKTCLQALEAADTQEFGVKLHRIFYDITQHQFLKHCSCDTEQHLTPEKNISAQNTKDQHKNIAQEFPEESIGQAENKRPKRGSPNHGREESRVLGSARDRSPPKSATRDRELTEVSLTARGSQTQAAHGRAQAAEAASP
The data set is described as follows: fluorescence anisotropy.

Data set [3] deals with T2, TOPOVIBLΔC25 (monomer). The data set is described as follows: competition.
The target in data set [4] is T2, TOPOVIBLΔC25 (monomer). The data set is described as follows: fluorescence anisotropy. The source holds these as a separate data set.

One may read the stoichiometry N as a count of units in the complex or per binding partner. Molecule HSP70 (natural protein) returned a stoichiometry N in data set [1] of 2.

B1: 2B39 dsDNA (dsDNA)
DNA 1: CTTTCCAGAAGCTACCACCATCATGTCTTCTACCACTGT
DNA 2: ACAGTGGTAGAAGACATGATGGTGGTAGCTTCTGGAAAG
As a reminder, the Kd is the constant that tells how readily two partners part at equilibrium. A higher Kd goes with weaker binding. In the data set with TOPOVIBLΔC25 K281E K282E, B1 yielded a binding signal of 3 mutant/wild type Kd ratio. The molecule further came in with a Kd with TOPOVIBLΔC25 (monomer) [2] of 650 nM.

Consider ACAGTGGTAGAAGACATGATGGTGGTAGCTTCTGGAAAG (ssDNA) [ss2B39 (unlabeled competitor)], for which the binding result with TOPOVIBLΔC25 (monomer) [3] is given as “binds”.

Regarding CTTTCCAGAAGCTACCACCATCATGTCTTCTACCACTGT (ssDNA) [ss2B39 (labeled)], in the data set with TOPOVIBLΔC25 (monomer) [2], the Kd is 310 nM.

B2: 2B20 dsDNA (dsDNA)
DNA 1: GCTACCACCATCATGTCTTC
DNA 2: GAAGACATGATGGTGGTAGC
Turning to B2, the Kd with TOPOVIBLΔC25 (monomer) [2] was found to be 1610 nM.

B3: U40 dsDNA (dsDNA)
DNA 1: CTATTGAAAAAGGAAGAGTATGAGTATTCAACATTTCCGC
DNA 2: GCGGAAATGTTGAATACTCATACTCTTCCTTTTTCAATAG
Regarding B3, the binding result with TOPOVIBLΔC25 (monomer) [4] was “binds”.

B4: 2B60 dsDNA (dsDNA)
DNA 1: AGAGATGGCCCTTTCCAGAAGCTACCACCATCATGTCTTCTACCACTGTGCACTAATATA
DNA 2: TATATTAGTGCACAGTGGTAGAAGACATGATGGTGGTAGCTTCTGGAAAGGGCCATCTCT
In the case of B4, binding with TOPOVIBLΔC25 (monomer) [2] was characterised by a dissociation constant (Kd) of 900 nM.

B5: 2B70 dsDNA (dsDNA)
DNA 1: AGACAAGAGATGGCCCTTTCCAGAAGCTACCACCATCATGTCTTCTACCACTGTGCACTAATATAGTGTG
DNA 2: CACACTATATTAGTGCACAGTGGTAGAAGACATGATGGTGGTAGCTTCTGGAAAGGGCCATCTCTTGTCT
Molecule B5 had a Kd with TOPOVIBLΔC25 (monomer) [2] of 1500 nM.
